Kd, koff and kon data for one molecule are collected here from article PMC2683190 (Neurobiology of disease, 2009).

Assay [1] has as its target T1, soluble LIFR (leukemia inhibitory factor receptor) (UniProt P42702 45-833).
T1 sequence (looked up): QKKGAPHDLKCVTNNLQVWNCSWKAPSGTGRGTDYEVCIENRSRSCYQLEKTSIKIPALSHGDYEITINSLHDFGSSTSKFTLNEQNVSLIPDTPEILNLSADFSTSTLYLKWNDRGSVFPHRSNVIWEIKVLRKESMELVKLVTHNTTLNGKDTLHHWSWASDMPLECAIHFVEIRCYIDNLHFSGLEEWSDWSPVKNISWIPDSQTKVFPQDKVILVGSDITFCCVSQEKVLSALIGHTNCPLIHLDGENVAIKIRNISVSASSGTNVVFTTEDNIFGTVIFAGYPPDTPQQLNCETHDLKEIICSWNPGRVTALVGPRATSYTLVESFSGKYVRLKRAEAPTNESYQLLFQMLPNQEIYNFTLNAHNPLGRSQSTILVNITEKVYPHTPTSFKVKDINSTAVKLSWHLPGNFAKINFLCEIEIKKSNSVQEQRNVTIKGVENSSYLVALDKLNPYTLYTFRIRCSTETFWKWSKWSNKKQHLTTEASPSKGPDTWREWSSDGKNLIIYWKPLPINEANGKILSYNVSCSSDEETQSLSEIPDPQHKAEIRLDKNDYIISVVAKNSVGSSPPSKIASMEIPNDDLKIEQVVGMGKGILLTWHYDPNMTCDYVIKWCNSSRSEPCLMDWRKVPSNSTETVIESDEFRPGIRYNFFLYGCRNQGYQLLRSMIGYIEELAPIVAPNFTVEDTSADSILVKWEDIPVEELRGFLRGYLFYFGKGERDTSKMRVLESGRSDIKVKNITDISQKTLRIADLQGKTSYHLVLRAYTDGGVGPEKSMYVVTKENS
The assay is described as follows: SPR.

In assay [2] the target is T2, soluble gp130 (glycoprotein 130) (UniProt P40189 23-619).
T2 sequence (looked up): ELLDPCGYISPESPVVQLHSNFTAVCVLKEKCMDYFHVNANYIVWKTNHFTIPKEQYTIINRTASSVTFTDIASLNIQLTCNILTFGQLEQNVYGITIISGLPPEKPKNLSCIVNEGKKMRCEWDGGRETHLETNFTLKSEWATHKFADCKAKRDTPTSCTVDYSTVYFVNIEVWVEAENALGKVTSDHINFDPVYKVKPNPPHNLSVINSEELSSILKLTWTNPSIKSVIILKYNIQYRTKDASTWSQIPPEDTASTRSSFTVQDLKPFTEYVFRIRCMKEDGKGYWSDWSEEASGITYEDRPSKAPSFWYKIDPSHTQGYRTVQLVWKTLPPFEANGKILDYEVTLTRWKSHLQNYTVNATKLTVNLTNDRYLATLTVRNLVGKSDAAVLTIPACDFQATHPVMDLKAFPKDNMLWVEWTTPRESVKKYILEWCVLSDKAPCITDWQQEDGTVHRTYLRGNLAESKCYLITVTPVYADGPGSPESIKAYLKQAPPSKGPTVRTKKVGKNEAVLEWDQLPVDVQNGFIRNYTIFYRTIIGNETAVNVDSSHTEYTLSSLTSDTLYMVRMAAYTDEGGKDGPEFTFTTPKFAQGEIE
Briefly: SPR.

B1: GST-LIF (human leukemia inhibitory factor as glutathione-S-transferase fusion protein) (ligand)
chain: not shown
In assay [1], B1 came in with a Kd of 2.93 nM, an off-rate constant (koff) of 0.00107 s⁻¹ and a kon of 366000 M⁻¹ s⁻¹. In assay [2], this molecule came in with a Kd of 9.02 nM, a dissociation rate constant (koff) of 0.0017 s⁻¹ and a kon of 188000 M⁻¹ s⁻¹.

For orientation: Kd means the constant that tells how readily two partners part at equilibrium. Low values mean higher affinity, high ones lower affinity. As a reminder, the koff is the rate constant with which the complex falls apart. As a reminder, the kon is the second-order rate constant of association.
